Data reported in article PMC3770802 (Cytokine, 2013).
Blank lines part the entries; values can stand above or below the binder they belong to.

Assays:
IFN-αR2c/ECFP = molecular target: T1, IFN-αR2c/ECFP (human, UniProt P48551 27-515); assay: FRET or BRET
T1 sequence (looked up): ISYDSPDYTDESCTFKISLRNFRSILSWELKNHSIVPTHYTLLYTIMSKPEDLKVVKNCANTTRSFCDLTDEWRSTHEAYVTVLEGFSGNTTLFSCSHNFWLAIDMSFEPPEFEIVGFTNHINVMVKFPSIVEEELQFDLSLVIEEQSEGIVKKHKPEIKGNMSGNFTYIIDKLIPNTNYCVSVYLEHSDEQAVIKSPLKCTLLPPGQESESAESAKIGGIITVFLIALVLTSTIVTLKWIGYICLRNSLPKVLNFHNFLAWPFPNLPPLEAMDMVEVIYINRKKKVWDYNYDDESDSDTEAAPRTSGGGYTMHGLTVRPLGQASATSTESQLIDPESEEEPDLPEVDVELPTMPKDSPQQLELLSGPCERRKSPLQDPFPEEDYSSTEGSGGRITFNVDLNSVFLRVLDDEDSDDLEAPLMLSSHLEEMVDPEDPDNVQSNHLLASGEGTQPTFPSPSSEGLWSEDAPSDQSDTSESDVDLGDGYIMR

IL-10R2/StFP = molecular target: T2, IL-10R2/StFP (human, UniProt Q08334 20-325); assay: FRET or BRET
T2 sequence (looked up): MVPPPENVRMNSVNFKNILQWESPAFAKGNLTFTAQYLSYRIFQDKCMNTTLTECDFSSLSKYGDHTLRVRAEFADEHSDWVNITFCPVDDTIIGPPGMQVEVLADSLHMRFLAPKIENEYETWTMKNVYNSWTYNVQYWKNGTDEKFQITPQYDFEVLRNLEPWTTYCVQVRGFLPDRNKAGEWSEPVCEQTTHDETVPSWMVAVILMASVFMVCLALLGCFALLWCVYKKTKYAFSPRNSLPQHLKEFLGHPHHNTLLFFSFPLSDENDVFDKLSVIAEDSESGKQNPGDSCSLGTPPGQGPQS

EC50* (relative), rarely seen (IFN-αR2c/ECFP): 4 pairs/cell
B1: IFN-αR1/EYFP (receptor, human, UniProt P17181 28-557, looked up)
chain: KNLKSPQKVEVDIIDDNFILRWNRSDESVGNVTFSFDYQKTGMDNWIKLSGCQNITSTKCNFSSLKLNVYEEIKLRIRAEKENTSSWYEVDSFTPFRKAQIGPPEVHLEAEDKAIVIHISPGTKDSVMWALDGLSFTYSLVIWKNSSGVEERIENIYSRHKIYKLSPETTYCLKVKAALLTSWKIGVYSPVHCIKTTVENELPPPENIEVSVQNQNYVLKWDYTYANMTFQVQWLHAFLKRNPGNHLYKWKQIPDCENVKTTQCVFPQNVFQKGIYLLRVQASDGNNTSFWSEEIKFDTEIQAFLLPPVFNIRSLSDSFHIYIGAPKQSGNTPVIQDYPLIYEIIFWENTSNAERKIIEKKTDVTVPNLKPLTVYCVKARAHTMDEKLNKSSVFSDAVCEKTKPGNTSKIWLIVGICIALFALPFVIYAAKVFLRCINYVFFPSLKPSSSIDEYFSEQPLKNLLLSTSEEQIEKCFIIENISTIATVEETNQTDEDHKKYSSQTSQDSGNYSNEDESESKTSEELQQDFV

EC50* (relative) (IL-10R2/StFP): 200 pairs/cell
EC50* (relative), rarely seen (IL-10R2/StFP): 70 pairs/cell
B2: IFN-λR1/CiFP (receptor, human, UniProt Q8IU57 21-520, looked up)
chain: RPRLAPPQNVTLLSQNFSVYLTWLPGLGNPQDVTYFVAYQSSPTRRRWREVEECAGTKELLCSMMCLKKQDLYNKFKGRVRTVSPSSKSPWVESEYLDYLFEVEPAPPVLVLTQTEEILSANATYQLPPCMPPLDLKYEVAFWKEGAGNKTLFPVTPHGQPVQITLQPAASEHHCLSARTIYTFSVPKYSKFSKPTCFLLEVPEANWAFLVLPSLLILLLVIAAGGVIWKTLMGNPWFQRAKMPRALDFSGHTHPVATFQPSRPESVNDLFLCPQKELTRGVRPTPRVRAPATQQTRWKKDLAEDEEEEDEEDTEDGVSFQPYIEPPSFLGQEHQAPGHSEAGGVDSGRPRAPLVPSEGSSAWDSSDRSWASTVDSSWDRAGSSGYLAEKGPGQGPGGDGHQESLPPPEFSKDSGFLEELPEDNLSSWATWGTLPPEPNLVPGGPPVSLQTLTFCWESSPEEEEEARESEIEDSDAGSWGAESTQRTEDRGRTLGHYMAR
